The source of these data is patent US20150147337A1 (Merck Sharp & Dohme, published 2015).

Several values for one entry are separate records, joined by “and”; a condition that tells them apart may be missing. Equal entries are not always repeated.

This experiment deals with T1, Human IL-23 (human, UniProt P29460 23-328).
T1 construct: also called huIL-23
T1 sequence 1: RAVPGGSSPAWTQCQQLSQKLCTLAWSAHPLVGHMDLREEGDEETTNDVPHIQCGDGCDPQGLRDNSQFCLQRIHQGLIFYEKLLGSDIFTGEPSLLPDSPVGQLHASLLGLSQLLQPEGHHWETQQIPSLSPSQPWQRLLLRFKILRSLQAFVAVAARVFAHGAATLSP
T1 sequence 2: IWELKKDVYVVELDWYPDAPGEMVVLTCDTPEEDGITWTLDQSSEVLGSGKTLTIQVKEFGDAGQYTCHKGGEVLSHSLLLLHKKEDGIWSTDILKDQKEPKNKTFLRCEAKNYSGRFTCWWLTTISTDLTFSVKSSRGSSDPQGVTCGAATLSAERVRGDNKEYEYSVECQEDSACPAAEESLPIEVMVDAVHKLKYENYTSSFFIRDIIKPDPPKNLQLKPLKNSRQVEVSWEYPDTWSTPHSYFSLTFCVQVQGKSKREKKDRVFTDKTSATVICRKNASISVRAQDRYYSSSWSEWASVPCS
Kind of experiment: ELISA, human IL-23 immobilized on plate, HRP anti-IgG detection, four-parameter fit. The procedure: Re-dissolved crystalline anti-huIL-23p19 mAb 13B8-b was also compared to the original solution antibody by ELISA. Two different lots of each of solution and re-dissolved crystalline anti-huIL-23p19 mAb 13B8-b were tested for their ability to bind to IL-23. Human IL-23 was immobilized onto an ELISA plate, and serial dilutions of anti-huIL-23p19 mAb 13B8-b (solution or re-dissolved crystalline) were added to the wells. After the plates were washed, bound antibody was detected using an HRP-labeled anti-IgG antibody and a colorimetric substrate. Plates were read in a plate reader and the dose response curves were analyzed using a four-parameter logistic fit. At equilibrium, the EC50 of a saturation binding curve reflects the equilibrium binding dissociation constant (KD), where a higher value represents lower affinity, and a lower value represents higher affinity, of the antibody for the ligand. The potency of the test sample is assessed by comparing binding curves of the test samples to a reference material by the ratio of the EC50's. Potency is expressed as percent of reference material, in this case, selected to be lot #1 of the solution form of anti-huIL-23p19 mAb 13B8-b.
On the technique in general: In an ELISA, binding on a coated surface is turned into a signal by an enzyme label.

The EC50 is the concentration giving half of the maximal effect.

B1: humanized anti-human IL-23p19 monoclonal antibody 13B8-b (antibody, human IgG1, kappa, V domains shown)
VH: QVQLVQSGAEVKKPGASVKVSCKASGYIFITYWMTWVRQAPGQGLEWMGQIFPASGSADYNEKFEGRVTMTTDTSTSTAYMELRSLRSDDTAVYYCARGGGGFAYWGQGTLVTVSS
VL: DIQMTQSPSSLSASVGDRVTITCRTSENIYSYLAWYQQKPGKAPKLLIYNAKTLAEGVPSRFSGSGSGTDFTLTISSLQPEDFATYYCQHHYGIPFTFGQGTKVEIKR
notes: Full-length IgG1 kappa; It was tested as never-crystallized solution material (two lots) and as antibody re-dissolved from crystals (two lots); also called anti-huIL-23p19 mAb 13B8-b; hu13B8-b
Take B1: the concentration for a half-maximal effect (EC50) was 0.071 nM and 0.106 nM and 0.073 nM and 0.116 nM.
